Source: article PMC6245935, “Fructose-1,6-bisphosphate aldolase encoded by a core gene of Mycoplasma hyopneumoniae contributes to host cell adhesion” (Veterinary Research, 2018)

Biological target: fibronectin (UniProt P02751 32-2477)
Experiment: SPR; BIAcore X100 Plus; fibronectin amine-coupled to CM5 chip (2868 RU); rFBA analyte 0-100 ug/mL in HBS-EP (10 mM HEPES, 150 mM NaCl, 3 mM EDTA, 0.05% P20), 30 uL/min, 180 s association, 1000 s dissociation, 20 °C
Details: both partners purified

Chain of fibronectin (P02751 32-2477): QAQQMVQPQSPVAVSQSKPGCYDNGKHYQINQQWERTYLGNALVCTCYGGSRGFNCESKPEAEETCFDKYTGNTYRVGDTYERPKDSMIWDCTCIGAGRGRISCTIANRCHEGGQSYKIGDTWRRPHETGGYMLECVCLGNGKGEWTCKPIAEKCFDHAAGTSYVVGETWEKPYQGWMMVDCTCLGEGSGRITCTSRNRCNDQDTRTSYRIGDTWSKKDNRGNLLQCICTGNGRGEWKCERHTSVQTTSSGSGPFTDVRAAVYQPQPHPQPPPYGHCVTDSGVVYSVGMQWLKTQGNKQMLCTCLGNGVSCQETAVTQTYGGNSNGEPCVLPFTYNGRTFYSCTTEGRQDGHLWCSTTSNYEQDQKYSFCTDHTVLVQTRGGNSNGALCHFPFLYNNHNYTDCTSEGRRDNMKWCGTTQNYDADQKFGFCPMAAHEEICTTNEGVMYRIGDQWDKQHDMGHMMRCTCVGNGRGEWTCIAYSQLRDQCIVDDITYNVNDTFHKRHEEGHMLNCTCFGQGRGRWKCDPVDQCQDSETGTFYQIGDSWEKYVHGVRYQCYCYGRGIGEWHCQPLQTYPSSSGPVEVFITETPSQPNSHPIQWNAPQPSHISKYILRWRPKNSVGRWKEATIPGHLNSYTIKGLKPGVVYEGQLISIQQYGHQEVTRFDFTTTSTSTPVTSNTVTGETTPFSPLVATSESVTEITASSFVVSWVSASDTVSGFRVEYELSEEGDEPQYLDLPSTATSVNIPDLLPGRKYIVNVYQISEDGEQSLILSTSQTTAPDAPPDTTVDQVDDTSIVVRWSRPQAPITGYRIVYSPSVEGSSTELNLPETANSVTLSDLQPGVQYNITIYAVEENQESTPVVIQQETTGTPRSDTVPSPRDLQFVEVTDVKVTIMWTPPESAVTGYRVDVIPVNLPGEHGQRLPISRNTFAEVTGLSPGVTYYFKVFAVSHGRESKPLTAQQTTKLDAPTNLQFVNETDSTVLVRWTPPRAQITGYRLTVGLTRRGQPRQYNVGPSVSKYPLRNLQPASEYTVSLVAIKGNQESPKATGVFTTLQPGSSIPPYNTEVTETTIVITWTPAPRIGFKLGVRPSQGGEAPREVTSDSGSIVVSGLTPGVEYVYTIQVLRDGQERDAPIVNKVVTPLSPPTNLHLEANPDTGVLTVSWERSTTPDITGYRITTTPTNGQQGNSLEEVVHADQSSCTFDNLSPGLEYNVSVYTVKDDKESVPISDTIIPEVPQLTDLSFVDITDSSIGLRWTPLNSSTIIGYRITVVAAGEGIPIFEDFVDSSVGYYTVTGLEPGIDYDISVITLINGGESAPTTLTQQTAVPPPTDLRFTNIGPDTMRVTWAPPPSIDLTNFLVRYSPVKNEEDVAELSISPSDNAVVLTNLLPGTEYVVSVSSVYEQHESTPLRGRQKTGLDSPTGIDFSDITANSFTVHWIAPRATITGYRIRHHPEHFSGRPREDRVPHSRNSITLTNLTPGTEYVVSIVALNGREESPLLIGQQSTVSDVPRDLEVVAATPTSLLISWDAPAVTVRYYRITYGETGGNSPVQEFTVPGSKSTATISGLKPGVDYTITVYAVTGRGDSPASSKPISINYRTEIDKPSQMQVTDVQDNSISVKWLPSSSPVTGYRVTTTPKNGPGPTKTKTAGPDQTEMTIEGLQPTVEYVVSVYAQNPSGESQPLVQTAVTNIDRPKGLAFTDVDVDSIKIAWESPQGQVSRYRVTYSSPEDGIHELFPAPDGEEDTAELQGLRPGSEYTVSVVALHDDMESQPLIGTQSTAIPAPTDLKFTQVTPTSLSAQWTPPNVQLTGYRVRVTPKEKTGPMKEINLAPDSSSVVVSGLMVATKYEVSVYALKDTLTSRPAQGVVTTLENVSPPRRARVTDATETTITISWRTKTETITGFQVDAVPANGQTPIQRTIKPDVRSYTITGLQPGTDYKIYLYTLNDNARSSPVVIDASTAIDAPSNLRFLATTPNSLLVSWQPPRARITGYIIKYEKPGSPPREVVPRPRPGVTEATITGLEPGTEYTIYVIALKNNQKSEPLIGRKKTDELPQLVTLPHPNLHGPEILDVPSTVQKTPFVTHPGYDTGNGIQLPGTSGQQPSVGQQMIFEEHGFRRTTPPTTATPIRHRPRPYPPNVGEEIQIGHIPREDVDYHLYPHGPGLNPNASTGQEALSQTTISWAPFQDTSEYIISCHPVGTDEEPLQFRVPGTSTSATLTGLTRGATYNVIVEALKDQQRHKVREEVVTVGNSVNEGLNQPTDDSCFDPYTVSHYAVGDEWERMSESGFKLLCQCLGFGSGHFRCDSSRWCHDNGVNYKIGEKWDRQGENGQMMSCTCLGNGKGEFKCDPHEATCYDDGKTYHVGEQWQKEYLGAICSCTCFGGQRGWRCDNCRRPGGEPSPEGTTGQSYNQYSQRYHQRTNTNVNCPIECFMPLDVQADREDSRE

B1: recombinant fructose-1,6-bisphosphate aldolase (rFBA) of Mycoplasma hyopneumoniae strain 168 (enzyme)
chain: MKTIISIAIDFLKNRESAHFSDIFLEVQTSLMSKWENQLPNLSTDKILTLKRGELYKLLSIDGNFVPLGDNYWTLRSDLNALVFFFFFFLKVFDCKKKKKKYRKGKMQLVNTKEMLEKALKNNYAIPHININNLEWTKAALLAAQAKKSPLIIGTSERVLTYMGGLKTIYNLVTNLIDYFKITVPVALHLDHGTYLTCKEALKNGYTSVMYDGSKEKFELNLERTEEIVRLANKVNATVEAEVGQIGGEEDGVIGNGEIANPENAKKITETGITCLAAGIGNIHGIYPPDWKSLNFEILEKISKVTKIPLVLHGGSGIPKDQIQKAIKLGIAKINVNTELQQANAAAISEFVLSGKVKQGKNFDPRKLLAPGTDAIQLLIEEKITEFGSANQA
notes: Fructose-1,6-bisphosphate aldolase (FBA) of Mycoplasma hyopneumoniae strain 168, full-length fba gene, locus MHP168_014, GenBank ADQ90241.1; The gene was cloned by site-directed mutation and overlap extension PCR 'due to the existence of rare codons'; also called fructose-bisphosphate aldolase; source: Escherichia coli BL21 (DE3), purified by Ni-chelating chromatography
  Kd: 468 ± 23 nM
  kon: 3470 ± 580 M⁻¹ s⁻¹
